Measurements: patent publication US20100061996

Molecular target: pro-uPA (pro-urokinase-type plasminogen activator, single-chain zymogen form of uPA) (UniProt P00749)

soluble His-tagged hepsin comprising the entire extracellular domain of human hepsin (Arg45-Leu417), sequence (chain, as listed by the source): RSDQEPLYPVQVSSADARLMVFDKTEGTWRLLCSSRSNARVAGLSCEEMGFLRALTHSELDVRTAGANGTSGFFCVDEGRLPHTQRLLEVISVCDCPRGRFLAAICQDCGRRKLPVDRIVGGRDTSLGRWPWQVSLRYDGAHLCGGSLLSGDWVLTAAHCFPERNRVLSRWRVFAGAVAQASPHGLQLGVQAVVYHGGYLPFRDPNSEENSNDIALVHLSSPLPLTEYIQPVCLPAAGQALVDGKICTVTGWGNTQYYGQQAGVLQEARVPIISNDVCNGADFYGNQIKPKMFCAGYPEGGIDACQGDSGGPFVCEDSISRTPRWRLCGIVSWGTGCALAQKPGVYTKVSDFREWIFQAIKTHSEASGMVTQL

For “soluble His-tagged hepsin comprising the entire extracellular domain of human hepsin (Arg45-Leu417)”, the “cleavage of pro-uPA (SDS-PAGE, 1.5 uM pro-uPA, 15 nM hepsin)” value was “Incubation of pro-uPA with hepsin resulted in a time-dependent cleavage of the single-chain form into the two-chain form”, the k (first-order rate constant of pro-uPA activation) was 0.0871 min⁻¹ and the kcat/Km of pro-uPA activation was 484000 M⁻¹ s⁻¹.
